Consider 4 substances from patent EP1141005B1.

Targets include GAL4/HIF 776-826 (human); GAL4/HIF 531-584 (human); GAL4/HIF 526-826 (human); GAL4/HIF 1-813 (human); GAL4/HIF 71-826 (human); GAL4/Arnt 128-774 (UniProt P04386); GAL4/Arnt 128-603 (UniProt P04386).
Holding throughout (test): cell-based or functional assay
For test [1], the target named is GFP-HIF-1α (in-frame fusion of green fluorescent protein with full-length HIF-1α) (Aequeora victoria; human) [GFP: P42212].
Test [2] addresses HIF-1α (wild-type human HIF-1α expressed from pCMV4/HIF-1α) (human) (UniProt Q16665).

Chain of HIF-1α (wild-type human HIF-1α expressed from pCMV4/HIF-1α) (human) (Q16665 whole entry): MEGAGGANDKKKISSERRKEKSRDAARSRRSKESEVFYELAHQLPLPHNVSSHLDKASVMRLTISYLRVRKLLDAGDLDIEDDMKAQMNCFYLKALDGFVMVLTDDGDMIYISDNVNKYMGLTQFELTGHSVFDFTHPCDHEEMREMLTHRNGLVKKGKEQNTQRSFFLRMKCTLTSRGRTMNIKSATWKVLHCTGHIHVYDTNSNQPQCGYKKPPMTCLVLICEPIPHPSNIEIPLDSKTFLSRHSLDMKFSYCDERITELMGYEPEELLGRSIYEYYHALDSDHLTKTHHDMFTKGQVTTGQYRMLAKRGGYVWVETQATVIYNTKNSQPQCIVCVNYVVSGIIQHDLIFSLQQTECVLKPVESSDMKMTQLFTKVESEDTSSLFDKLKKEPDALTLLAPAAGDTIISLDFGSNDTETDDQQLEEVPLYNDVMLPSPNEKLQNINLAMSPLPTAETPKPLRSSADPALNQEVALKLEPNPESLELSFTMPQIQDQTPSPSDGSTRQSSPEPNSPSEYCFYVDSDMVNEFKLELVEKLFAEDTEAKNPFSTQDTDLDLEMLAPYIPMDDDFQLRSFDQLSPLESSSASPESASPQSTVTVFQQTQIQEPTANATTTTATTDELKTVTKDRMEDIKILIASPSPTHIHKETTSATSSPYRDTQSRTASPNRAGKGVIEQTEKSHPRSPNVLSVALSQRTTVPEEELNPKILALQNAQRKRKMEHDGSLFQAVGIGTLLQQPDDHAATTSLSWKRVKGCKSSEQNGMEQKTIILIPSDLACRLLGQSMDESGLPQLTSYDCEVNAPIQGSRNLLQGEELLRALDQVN

“CBP (CREB binding protein, full-length mouse CBP expressed from pRc/RSV-mCBP-HA) (from UniProt P45481 1-2441)”: the GAL4-responsive reporter gene activity, COS7, in the presence of CBP with GAL4/HIF 776-826 (human) was found to be 29 fold. Further, in the test with GAL4/HIF 531-584 (human), the GAL4-responsive reporter gene activity, COS7, hypoxic cells, in the presence of CBP was found to be 11 fold. Moreover, in test [1], the HRE-dependent reporter gene activity, COS7, hypoxia with CBP over the levels at normoxia was found to be 15 fold and the HRE-dependent reporter gene activity, COS7, hypoxia, enhancement by coexpressed CBP was found to be 3 fold. The substance further registered a pT81/HRE-luc reporter gene activity, COS7 coexpressing HIF-1α and Arnt, hypoxia, against hypoxia without exogenous coactivator in [2] of 2 to 3 fold. The GAL4-responsive reporter gene activity, COS7, transient expression of CBP in the test with GAL4/HIF 526-826 (human) lay in the range of 7 to 9 fold. This substance also came in with a GAL4-responsive reporter gene activity, COS7, hypoxia, overexpression of CBP with GAL4/HIF 1-813 (human) of 14 fold. In the test with GAL4/HIF 71-826 (human), this substance gave a luciferase activity, GAL4-responsive reporter, COS7, hypoxia with CBP against hypoxia without exogenous coactivators of 30 fold.
On to “HIF-1α (wild-type human HIF-1α expressed from pCMV4/HIF-1α) (from UniProt Q16665 1-826)”, for which, in the test with GAL4/Arnt 128-774, the GAL4-responsive reporter gene activity, COS7, normoxia, against the GAL4 fusion protein alone amounted to 4 fold. The substance further showed a GAL4-responsive reporter gene activity, COS7, normoxia in the test with GAL4/Arnt 128-603 of 5 fold.
Take “Ref-1 (nuclear redox regulator Ref-1 expressed from pCMV5/Ref-1) (from UniProt P27695 1-318) (enzyme)”: the figures for the hypoxia-dependent activation of a GAL4-responsive reporter, COS7, Ref-1 coexpressed in the presence of CBP and SRC-1 with GAL4/HIF 776-826 (human) and with GAL4/HIF 531-584 (human) were 53 fold and 12 fold, respectively.
On to “TIF2 (transcriptional coactivator TIF2) (from UniProt Q15596 1-1464)”, for which, in test [2], the pT81/HRE-luc reporter gene activity, COS7, hypoxia over the levels at normoxia worked out at 12 fold.
